Target: mouse VPS29 (isotopically labelled NMR sample) (mouse)
Assay: NMR titration; SNX1 titrated into 0.1 mM 15N-labelled VPS29, soFast 15N HMQC, 298 K, 600 MHz; 10 mM HEPES (pH 7.5), 100 mM NaCl, DTT

Kd: > 150 µM
Substance: human SNX1 (recombinant, for NMR titrations) (from UniProt Q13596 1-522) (natural protein)

Reference: PMC3101248
